Experimental data reported in article PMC10244618.
“And” between values parts separate entries of the source, which are not always exact repeats. Identical values can stand only once.

B1: NF2 (merlin) isoform 7, human, full length (507 aa, lacks exons 2-3 = isoform-1 residues 39-121; exon-16 C-terminus), P35240-4 (parent)
chain: MAGAIASRMSFSSLKRKQPKTFTVRIVTMDAEMEFNCEVKKQILDEKIYCPPEASVLLASYAVQAKYGDYDPSVHKRGFLAQEELLPKRVINLYQMTPEMWEERITAWYAEHRGRARDEAEMEYLKIAQDLEMYGVNYFAIRNKKGTELLLGVDALGLHIYDPENRLTPKISFPWNEIRNISYSDKEFTIKPLDKKIDVFKFNSSKLRVNKLILQLCIGNHDLFMRRRKADSLEVQQMKAQAREEKARKQMERQRLAREKQMREEAERTRDELERRLLQMKEEATMANEALMRSEETADLLAEKAQITEEEAKLLAQKAAEAEQEMQRIKATAIRTEEEKRLMEQKVLEAEVLALKMAEESERRAKEADQLKQDLQEAREAERRAKQKLLEIATKPTYPPMNPIPAPLPPDIPSFNLIGDSLSFDFKDTDMKRLSMEIEKEKVEYMEKSKHLQEQLNELKTEIEALKLKERETALDILHNENSDRGGSSKHNTIKKPQAQGRRPICI

Variants of: B1
Assay: reverse yeast two-hybrid deep mutational scan (rY2H-seq): NF2 isoform 7 mutant library as bait mated with wild-type prey strains; selection on medium lacking adenine for non-interacting pairs; NextSeq paired-end sequencing; enrichment vs …
Conditions: yeast diploids after mating (RBait_S3 x RPrey_S3), 30 °C, selection for reporter genes on NB agar, HIGHER = WEAKER BINDING (the opposite of display enrichments): higher = stronger loss of interaction: reverse Y2H selects yeast in which bait and prey do NOT interact (growth without adenine), so a …, hits-only table, scale: rY2H score, numbering: uniprot, sequence starts at 1
[1] = with EMILIN1 (elastin microfibril interfacer 1), Q9Y6C2, human ABL2 co-expressed as the kinase-dead K35M mutant …
[2] = with PIK3R3 (phosphatidylinositol 3-kinase regulatory subunit gamma), Q92569, human tyrosine kinase ABL2 co-expressed as the active kinase …
[3] = with KDM1A (lysine-specific histone demethylase 1A; the table's label AOF2 is a gene synonym of KDM1A), O60341, human ABL2 co-expressed as the kinase-dead K35M mutant …
[4] = with KDM1A (lysine-specific histone demethylase 1A; the table's label AOF2 is a gene synonym of KDM1A), O60341, human tyrosine kinase ABL2 co-expressed as the active kinase …
[5] = with EMILIN1 (elastin microfibril interfacer 1), Q9Y6C2, human tyrosine kinase ABL2 co-expressed as the active kinase …
[6] = with NF2 C-terminal domain (wild type; homomeric NF2-NF2 interaction), P35240, human ABL2 co-expressed as the kinase-dead K35M mutant …, partner unresolved

Row | enrichment [1] | enrichment [2] | enrichment [3] | enrichment [4] | enrichment [5] | enrichment [6] | Variant
1 | 2.38 | 5.15 | – | – | – | – | D374K
2 | 1.49 | – | – | – | – | – | G419K
3 | 1.87 | – | – | – | – | – | V352E
4 | 4.94 | – | – | 6.12 | 10.4 | – | A381K
5 | 1.78 and 4.12 | 4.06 | 1.57 | – | 3.82 and 2.77 | – | E344K
6 | 5.14 | 3.96 | – | – | 3.53 | – | P403R
7 | 3.3 | – | 2.85 | – | – | 1.81 | Q373E
8 | 5.41 | – | – | – | – | – | I463A
9 | 2.27 | – | 2.24 | – | 3.86 and 4.2 | – | S483A
10 | 8.41 | – | – | – | – | – | L353T
11 | 23.4 | – | 21.7 | 6.27 | 13.4 | – | Q345T
12 | 3.21 | – | 1.93 | – | – | – | L422K
13 | 2.46 | 1.63 | 1.48 and 1.82 | 3.03 | – | 3.35 and 2.55 | P409L
14 | 1.88 | – | – | – | 2.88 | – | P413L
15 | 2.04 | – | 1.66 | – | – | – | T397A
16 | 2.64 | – | 11.9 and 4.42 | – | 4.87 | 4.53 | A365E

Row | enrichment [1] | enrichment [2] | enrichment [3] | enrichment [4] | enrichment [5] | enrichment [6] | Variant
17 | 3.4 | 10.3 | – | – | – | 5.67 | G486K
18 | 2.67 | – | – | – | 3.34 | – | I412A
19 | 3.38 | – | – | – | – | – | L355K
20 | 1.92 | – | – | – | – | – | E382G
21 | 5.53 | – | 3.66 | – | – | – | M431E
22 | 2.04 | 2.23 | – | – | – | – | M431A
23 | 2.78 | – | – | – | – | – | M431K
24 | 2.01 | – | – | – | – | – | D484A
25 | 1.6 | 1.85 and 3.91 | 2.38 | – | – | 1.76 | P405E
26 | 3.57 and 2.37 | 4.58 | – | – | – | – | P405Q
27 | 2.21 | – | – | – | – | – | D411K
28 | 2.36 | – | – | – | – | 2.38 | R384A
29 | 16.4 | – | 19.8 | – | – | – | I418W
30 | 2.11 | – | – | – | – | – | R379L
31 | 2.98 | – | – | – | – | – | K427T
32 | 1.89 | 1.96 | – | – | 2.45 | – | Y398L

Further lines, the variant ahead of its results:

Row | Variant | enrichment [1] | enrichment [2] | enrichment [3] | enrichment [4] | enrichment [5] | enrichment [6]
33 | R227K | 1.95 | – | – | – | – | –
34 | R268K | 3.47 | – | – | – | – | –
35 | P163K | 5.55 | – | 7.04 | 5.58 | – | –
36 | L214E | 8.22 | 30 | 13.4 | – | 5.18 and 15.2 | 2.48
37 | E338K | 2.51 | – | – | – | – | –
38 | E338A | 3.66 | 4.09 | 2.42 | 6.92 | 4.28 | –
39 | E338L | 2.57 | – | 5.57 | – | 2.53 | 3.03
40 | E339T | 3.93 | – | 2.02 | – | 5.99 | 2.08
41 | E339K | 4.07 and 1.56 | 1.62 | 2.92 | 2.13 | 3.86 | 1.45
42 | E339L | 1.74 | – | – | – | – | 1.65
43 | E339A | 2.51 | – | – | – | 1.94 | –
44 | K211I | 3.12 | 2.81 and 3.72 | 5.27 | 2.6 | 3.16 | 2.67
45 | P52E | 9.88 | – | – | – | – | –
46 | G114A | 7.29 | 3.53 | – | – | – | 2.02
47 | R341E | 3.61 | 6.39 | – | – | – | 2.88
48 | R341K | 2.64 | – | 7.07 | – | 3.2 | –
49 | R341L | 2.12 and 2.16 | – | 4.47 and 2.73 | – | – | 1.59
50 | Q279K | 2.01 | 7.05 | 6.01 | – | 2.32 and 4.35 | –
51 | T332D | 4.98 and 1.87 | – | – | – | 2.07 | –
52 | T332L | 1.4 | 2.31 | – | – | – | –
53 | R263K | 2.14 | – | 1.91 | – | – | –
54 | Q64A | 2.42 | 8.91 and 12.3 | – | – | – | –

Row | Variant | enrichment [1] | enrichment [2] | enrichment [3] | enrichment [4] | enrichment [5] | enrichment [6]
55 | Q324A | 1.9 | – | 2.45 | – | 3.69 | –
56 | D30L | 3.86 | – | – | – | – | –
57 | D30A | 6.06 | – | – | – | – | –
58 | E164L | 2.39 | 2.07 | 3.94 | – | – | –
59 | I329E | 2.28 | – | – | 3.19 and 2.75 | 1.79 and 3.15 | 2.93
60 | E303V | 5.6 and 16.3 | – | – | – | – | –
61 | R335K | 3.27 | – | 4.54 and 2.35 | 3.19 | 2.33 | –
62 | A302E | 4.06 | – | 2.49 and 5 | – | – | –
63 | E259L | 1.55 | – | 3.91 and 3.57 | – | 1.72 | –
64 | T28L | 5.37 | – | – | – | – | –
65 | A320L | 2.52 | – | 4.56 and 4.18 | – | 3.39 | –
66 | L158A | 2.28 | – | – | 11 | 2.56 | 1.57
67 | L158K | 2.72 | – | – | – | 3.39 and 2.28 | –
68 | P174T | 2.95 | 2.16 and 1.7 | 1.5 and 1.57 and 1.64 | – | – | –
69 | I141A | 20.7 | – | 21.3 and 14.9 | 30.8 | – | –
70 | I171K | 2.56 | 6.85 | 4.6 | 8.42 | 1.76 | –
71 | G135E | 2.42 | – | 2.61 | – | – | –
72 | E274K | 1.67 | – | – | – | – | –
73 | P87S | 1.62 | 2.86 | 2.56 | 3.13 | 1.61 | –
74 | E265L | 3.19 | – | 7.66 | 4.47 | 3.78 | –
75 | D162K | 1.74 | – | – | – | – | –
76 | D162L | 3.3 | – | 2.41 | – | – | 2.21

Row | Variant | enrichment [1] | enrichment [2] | enrichment [3] | enrichment [4] | enrichment [5] | enrichment [6]
77 | S55E | 6.87 | – | 5.38 | 7.48 | 5.24 | –
78 | K246A | 2.24 | – | – | – | – | –
79 | L149A | 4.26 | 17.7 | – | – | 2.53 and 5.08 | 2.75 and 3.85
80 | E311A | 1.44 | – | – | – | – | –
81 | E177L | 4.46 | – | – | – | 2.3 | 5.54
82 | R270L | 1.78 | – | – | – | 6.66 | 2.39
83 | K15A | 6.29 | 7.57 | 13.9 | 2.57 | 6.35 and 3.55 | –
84 | Y61L | 3.12 | 4.61 and 3.92 | 9.24 | 7.08 | 5.18 | 3.55
85 | Y161L | 3.35 and 1.58 | 2.22 | 2.08 | – | – | –
86 | M251A | 3.87 and 2.36 | 4.21 | 4.5 | 2.61 | 6.14 | –
87 | I334E | 2.52 | 2.25 | 4.73 and 1.72 | – | – | –
88 | I334L | 1.59 and 1.85 | 1.39 | – | 3.11 | – | –
89 | L151K | 3.05 | – | – | – | – | –
90 | L151S | 3.66 | – | 7.87 | 6.8 | – | 12.3
91 | T97I | 1.62 | – | – | 1.95 | – | –
92 | A298K | 1.79 | – | – | – | – | –
93 | K318E | 3.15 | – | – | 1.81 | – | –
94 | K318T | 1.91 | – | – | 1.54 | – | –
95 | K318L | 2.66 | – | – | – | 1.75 | –
96 | N176L | 7.14 | 1.81 | – | – | 1.82 | 10.6
97 | M280E | 2.68 | – | – | – | – | –
